Ratio of Y4/Y2 SPA binding values data for one substance are collected here from patent US20170313750A1 (Novo Nordisk, published 2017).

A value given as a limit tells only on which side of the number the result lay.

For this test, the target named is human Y4 receptor (P50391, NPY4R_HUMAN, Uniprot) (human) (UniProt P50391). As to the kind of experiment: ratio of SPA values, Y2 as reference.
Sequence of human Y4 receptor (P50391, NPY4R_HUMAN, Uniprot) (human) (P50391 whole entry): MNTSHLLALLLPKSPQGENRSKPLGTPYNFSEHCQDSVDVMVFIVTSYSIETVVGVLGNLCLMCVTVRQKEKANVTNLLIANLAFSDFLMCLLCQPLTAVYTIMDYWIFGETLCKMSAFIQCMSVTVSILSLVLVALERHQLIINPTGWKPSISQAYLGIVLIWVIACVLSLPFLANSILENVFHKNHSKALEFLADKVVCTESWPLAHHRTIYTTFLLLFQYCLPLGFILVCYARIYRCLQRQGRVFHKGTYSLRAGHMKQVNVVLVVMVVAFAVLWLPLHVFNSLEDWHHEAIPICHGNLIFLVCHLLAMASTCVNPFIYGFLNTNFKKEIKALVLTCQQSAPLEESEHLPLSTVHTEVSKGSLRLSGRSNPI

On to “N{alpha-4}-(3-Methylbutanoyl)-N{Epsilon-7}-[2-[2-[2-[[2-[2-[2-[[2-[2-[2-[[2-[2-[2-[[(4S)-4-carboxy-4-(17-carboxyheptadecanoylamino)butanoyl]amino]-ethoxy]ethoxy]acetyl]amino]ethoxy]ethoxy]acetyl]amino]ethoxy]ethoxy]acetyl]amino]ethoxy]ethoxy]acetyl]-[Arg4,Lys7,Pro9,Gln18,Tyr28,Trp30,Leu31]-PYY(4-36) (peptide)”, for which the Ratio of Y4/Y2 SPA binding values was above 18300.
